Test results as given in patent US20260102505A1, “ANTI-CD45-IGN ANTIBODY DRUG CONJUGATES AND USES THEREOF” (Vor Biopharma Inc., priority 2022, published 2026).
Where a chain is given by its changes, count along the chain named.

B1: AbA: humanized and affinity matured anti-CD45 antibody, VH SEQ ID NO:71, VL SEQ ID NO:75 (antibody, V domains shown)
VH: EVQLLESGGGLVQPGGSLRLSCAASGFTFNNYWMTWVRQAPGKGLEWVSSISSSGGSIYYPDRVKGRFTISRDNSKNTLYLQMNSLRAEDTAVYYCARDERWAGAMDAWGQGTTVTVSS
VL: DIQMTQSPSSLSASVGDRVTITCKASQNINKNLDWYQQKPGKAPKLLIYETNNLQTGVPSRFSGSGSGTDFTLTISSLQPEDFATYYCYQHNSRFTFGQGTKLEIK
B2: Ab2: human anti-CD45 antibody, VH SEQ ID NO:11, VL SEQ ID NO:15 (antibody, V domains shown)
VH: EVQLVESGGGLVQPGGSLRLSCAASGFTFEAYSMNWVRQAPGKGLEWVSYISLSGATIHYADSVKGRFTISRDNAKNSLYLQMNSLRAEDTAVYYCARGGQYYYDSSDYGEVAFDIWGQGTMVTVSS
VL: DIVMTQSPLSLPVTPGEPASISCRSSQSLVSNGYNYLDWYLQKPGQSPQLLIYFGSSRASGVPDRFSGSGSGTDFTLKISRVEAEDVGVYYCMQRRRTPWSFGGGTKVEIK
B3: Ab3: human anti-CD45 antibody, VH SEQ ID NO:21, VL SEQ ID NO:25 (antibody, V domains shown)
VH: B2 VH with E1Q, Q13K, E30G, A31G, L53I, H59T
VL: DIVMTQSPLSLPVTPGEPASISCRSSQSLVSNGYNYLDWYLQKPGQSPQLLIYFGSSRASGVPDRFSGSGSGTDFTLKISRVEAEDVGVYYCMQRRRTPPFTFGGGTKVEIK
B4: Ab6: human anti-CD45 antibody, VH SEQ ID NO:51, VL SEQ ID NO:55 (antibody, V domains shown)
VH: B2 VH with D105T, M122L
VL: B2 VL with M4L, N32S
B5: Ab7: human anti-CD45 antibody, VH SEQ ID NO:61, VL SEQ ID NO:65 (antibody, V domains shown)
VH: B2 VH with E1Q, Q13K, E30G, A31G, L53I, H59T
VL: B3 VL with N32S
B6: Ab4: human anti-CD45 antibody, VH SEQ ID NO:31, VL SEQ ID NO:35 (antibody, V domains shown)
VH: B2 VH with D105T
VL: B2 VL
B7: AbB: humanized and affinity matured anti-CD45 antibody, VH SEQ ID NO:81, VL SEQ ID NO:85 (antibody, V domains shown)
VH: EVQLVESGGGLVQPGGSLRLSCAASGFTFTNFWMAWIRQAPGKGLEWVASISSSGGSIYYPDSVKDRFTISRDNSKNTLYLQMNSLRAEDTAVYYCVKFHHYSGGGDAWGQGTLVTVSS
VL: DIQMTQSPSSLSASVGDRVTITCKASQNINKYLDWYQQKPGKAPKLLIHYTNNLHTGIPSRFSGSGSGTDYTLTISSLQPEDFATYYCLQHSSRWTFGGGTKVEIK
B8: AbC: humanized and affinity matured anti-CD45 antibody, VH SEQ ID NO:91, VL SEQ ID NO:95 (antibody, V domains shown)
VH: EVQLVESGGGLVQPGGSLRLSCAASGFTFNNYWMTWVRQAPGKGLEWVSSISSSGGSIYYPDSVKDRFTISRDNAKNSLYLQMNSLRAEDMAVYYCARLYYYDGGGDAWGQGTLVTVSS
VL: B7 VL with D1G, N28D, H49Y, Y50N, S92I

Tested on: human CD45, cyno CD45 and rhesus CD45
Experiment: CD45 binding / species cross-reactivity of antibodies
Parameters: species or system cynomolgus

| Molecule | cross-reactivity with CD45 of species (in words) |
| --- | --- |
| B1 | cross reacts with human CD45, cyno CD45 and rhesus CD45 |
| B2 | cross reacts with human CD45, cyno CD45 and rhesus CD45 |
| B3 | cross reacts with human CD45, cyno CD45 and rhesus CD45 |
| B4 | cross reacts with human CD45, cyno CD45 and rhesus CD45 |
| B5 | cross reacts with human CD45, cyno CD45 and rhesus CD45 |
| B6 | cross reacts with human CD45, cyno CD45 and rhesus CD45 |
| B7 | cross reacts with human CD45, cyno CD45 and rhesus CD45 |
| B8 | cross reacts with human CD45, cyno CD45 and rhesus CD45 |
